Source: the DeepSol protein solubility set

Assay: soluble on expression in E. coli; label from the status in PepcDB or PDB records

| Sequence | soluble on expression in E. coli |
| --- | --- |
| MALLEICCYSMECALTAQQNGADRVELCAAPKEGGLTPSLGVLKSVRQRVTIPVHPIIRPRGGDFCYSDGEFAAILEDVRTVRELGFPGLVTGVLDVDGNVDMPRMEKIMAAAGPLAVTFHRAFDMCANPLYTLNNLAELGIARVLTSGQKSDALQGLSKIMELIAHRDAPIIMAGAGVRAENLHHFLDAGVLEVHSSAGAWQASPMRYRNQGLSMSSDEHADEYSRYIVDGAAVAEMKGIIERHQAKLEHHHHHH | soluble |
| MGSDKIHHHHHHMTTQFACSGIELELFRYPSQQASNLQAWDAADEHLVKYLIDTEITATTTAILNDNFGALTCALTMQYPHSELLVETDAKTSLLGYQQNLLHNKLASTNIHWLNSRETLPQNIQLVLMKLPKNLHYFGQQLARLSTVLPAGTQILIGAKAKSINPALLASIEKNLGPASASLAWKKTRVISCISDGKKRSLAKAVSWNVDELKLTISNLANVFAANKLDIGARIMLDNMPKGEFKHIIDLGCGNGILGLHAKQCYPNAQIHFVDDSDMAIASAKHNWQANELDTPSQDLQSQDPQTEQMPQAFFHWDDCLSNLPADVEPDLVICNPPFHQGEAITDHIAWQMFVDAHKRLKKGGLLHIVGNRHLAYHVKINRIFKNCTTVASNGKFVILQAIK | not soluble |
| MGSDKIHHHHHHMKGIDVSSYQGTIAWGKVKWAGVQFAILKIIRKDLNPDKTFEQNWQGCTEAGMPIQGVYNYSYATTTEKAKTDAKRVIEVLAGRKTFVWLDVEDRCQQGLGQTLIDIINTYQSEIKTAGLEFGVYTGLSFYNTYILPYANQINCPFWIARYPSTKGMTIGDDPNDAKKPAIAHSLYGWQYTSAFTCSGLNNSTDANLLYVELGTKDTTAASQPVSAPVKPNNESWKGDIDYYLESEEVRKWQHAMNVGFDLKGADALKEDGKFGADSQAFAKSHNLWNGQKHYCPTAIKWLRRTLHDVYSFTKLDTDYKEWSDYLSKCVMVFQKNRGLTQDARVGLLTTYRLLKG | not soluble |
| MGSDKIHHHHHHMETFHLTRNEMATLLLSLRGWNTKKPLGILQEAWAKSHKKDIESGQSVTAFITTALSPIFEKLIKIDDTDVGFSLNEIVALGNQIENTSFSVTAMQNWVKRDIKEMIGSPQKGKKYSIEQAALLFIVEDLKTALDFESIRKLLRLIVNDPADRSDDLINPVHLYGAYSSLFEELNQGNCLQLNATDTIHTIENIVKERADKIASKFDQVNNEQREAIRNAIIIATLSVHTAYVQMLAKRYVTATLFLQNLDVKP | not soluble |
| MGSDKIHHHHHHMSSVSLQDFDAERIGLFHEDIKRKFDELKSKNLKLDLTRGKPSSEQLDFADELLALPGKGDFKAADGTDVRNYGGLDGIVDIRQIWADLLGVPVEQVLAGDASSLNIMFDVISWSYIFGNNDSVQPWSKEETVKWICPVPGYDRHFSITERFGFEMISVPMNEDGPDMDAVEELVKNPQVKGMWVVPVFSNPTGFTVTEDVAKRLSAMETAAPDFRVVWDNAYAVHTLTDEFPEVIDIVGLGEAAGNPNRFWAFTSTSKITLAGAGVSFFLTSAENRKWYTGHAGIRGIGPNKVNQLAHARYFGDAEGVRAVMRKHAASLAPKFNKVLEILDSRLAEYGVAQWTVPAGGYFISLDVVPGTASRVAELAKEAGIALTGAGSSYPLRQDPENKNLRLAPSLPPVEELEVAMDGVATCVLLAAAEHYAN | not soluble |
| MLSTSASLYLNELINEMRQLSETPIDCKNARMLLSKEISKVFDELYRHGQGFIDNGYGSDYNKNDFYSPHSANSGYSASPFPSRPSLPNHALSTSFYHNSFMTPIRNGRMRSPDQDLGDWSREKINDTQHVLQTKVYIPEPPVSIDGKKVKCNYIGRILGPSGMSARMIENQYDVTLLIRGAGSVRNKAMDERVRKRNEHLEEPLHVLLIARHNDKTKCEEILNKAAEKIESLLTPIHDEYKMDQLVSYAKMNGTYQERPKRKSQLDEQSHSNYWAPH | not soluble |
| MPRTFEEECDFIDRLTDTKFRIKKGFVPNMNVEGRFYVNNSLEQLMFDELKFSCDGQGIGGFLPAVRQIANVASLPGIVGHSIGLPDIHSGYGFSIGNIAAFDVGNPESVISPGGVGFDINCGVRLLRTNLFEENVKPLKEQLTQSLFDHIPVGVGSRGAIPMLASDLVECLEMGMDWTLREGYSWAEDKEHCEEYGRMLQADASKVSLRAKKRGLPQLGTLGAGNHYAEVQVVDEIYDKHAASTMGIDEEGQVVVMLHCGSRGLGHQVATDSLVEMEKAMARDGIVVNDKQLACARINSVEGKNYFSGMAAAANFAWVNRSCITFCVRNAFQKTFGMSADDMDMQVIYDVSHNVAKMEEHMVDGRPRQLCVHRKGATRAFPAHHPLIPVDYQLIGQPVLIGGSMGTCSYVLTGTEQGLVETFGTTCHGAGRALSRAKSRRTITWDSVIDDLKKKEISIRIASPKLIMEEAPESYKNVTDVVDTCDAAGISKKAVKLRPIAVIKG | not soluble |
| GEINGVSGIFPASSVEVIKQLPQPPPLCRALYNFDLRDKDKSENQDCLTFLKDDVITVISRVDENWAEGKLGDKVGIFPILFVEPNVSARHLLQNKGHQLSRTRHLSLMSSPSRGKATNTSSLRKSPGSRRKGSGQFSMTTALNTLNRTVHSPEGHQMVEISTPMLISSNSPSVLTQHGDKADFPTSSTGQVSSSQPAPASPGHSTAMVSVPSSQQHLSNNMFVALHTYSAHRPEELDLQKGEGIRVLGKYQDGWLKGLSLLTGRTGIFPSDYVIPVFSSTARKTSSFPDSRSPTVCTTWALSTSSVSSQGSFAEGDPRQSGPFKSVFVPTAVVNPSRSTPGPGSSGQGSLRKVRSSMRKNGSLQRPVQSGIPTFMVGSLRCSPTMVIRPQRFQFYPPQGMTPSPTPIMVEMGSKSIYTGEPALTCINRGSKTRIHSAGNSIIMEGKETPIKSEPPPKPPASAPPSILVKPENSKNGTEKQVKTVRFQNYSPPPTKHSASSPTSGKHDHPATLKGSQHEAVSSGGEMTILFAHRSGCHSGQQTDLRRKSAFGKTMPLLSTASATQTLFPSK | soluble |
| GHHHHHHHHHHSSGHIEGRHMKRMIALDGAQGEGGGQILRSALSLSMITGQPFTITSIRAGRAKPGLLRQHLTAVKAATEICGATVEGAELGSQRLLFRPGTVRGGDYRFAIGSAGSCTLVLQTVLPALWFADGPSRVEVSGGTDNPSAPPADFIRRVLEPLLAKIGIHQQTTLLRHGFYPAGGGVVATEVSPVASFNTLQLGERGNIVQMRGEVLLAGVPRHVAEREIATLAGSFSLHEQNIHNLPRDQGPGNTVSLEVESENITERFFVVGEKRVSAEVVAAQLVKEVKRYLASTAAVGEYLADQLVLPMALAGAGEFTVAHPSCHLLTNIAVVERFLPVRFSLIETDGVTRVSIE | soluble |
| MRRNIRVTLGAATIVAALGLSGCSHPEFKRSSPPAPSLPPVTSSPLEAAPITPLPAPEALIDVLSRLADPAVPGTNKVQLIEGATPENAAALDRFTTALRDGSYLPMTFAANDIAWSDNKPSDVMATVVVTTAHPDNREFTFPMEFVSFKGGWQLSRQTAEMLLAMGNSPDSTPSATSPAPAPSPTPPG | soluble |
| MAHHHHHHMQTVPSFQKTTSFHCSKAGRVLYSFREASRISGTHLPIVSAVDSYTLDSVFSEEVRPSFKSFAVDPSDRYCAAILDQDIDSVIRLFSLSAGPYPDHGAFASPAVQEEQDSAMGADEEEMEQWSIEDDDYDTDDSTDSNDDEFEEDEDDDDDSYDEEDAEEEFEEWEEEDEEESSPGTGSGSDEQEGTQASSRHAN | soluble |
| MGSDKIHHHHHHMTSPVENVKKKPRPLALSPSRAGDYQQCPLLYRFRAIDRLPEPKTVAQVKGTLVHAVLEYMHKLPREEREYPAMVKQLKPTWAQMCEEDAELKELVPEDELYDFLVDSRTLLRGYFEMENPQGFDATECEMYVDTVLPNGVPVRGFIDRVDTAPTGQVRVIDYKTGKKPKPQWSQQAQFQMLFYALVYWRMFNEIPAQLRLMYLKVNDSMFLNPSREQLEFFERDLGDLWAKIEMDGKAGHFRTKTSKLCGWCPHQSLCPEYGGVPPEYPGWPGSTAD | not soluble |
| SMLSTEGREGFVVKVRGLPWSCSAEEVMRFFSDCKIQNGTSGVRFIYTREGRPSGEAFVELESEDEVKLALKKDRETMGHRYVEVFKSNSVEMDWVLKHTGPNSPDTANDGFVRLRGLPFGCSKEEIVQFFSGLEIVPNGMTLPVDFQGRSTGEAFVQFASQEIAEKALKKHKERIGHRYIEIFKSSRAEVRTHYDPPRKLMTMQRPGPYDRPGAGRGYNSIGRGAGFERMRRGAYGGGYGGYDDYGGYNDGYGFGSDRFGRDLNYCFSGMSDHRYGDGGSSFQSTTGHCVHMRGLPYRATENDIYNFFSPLNPMRVHIEIGPDGRVTGEADVEFATHEDAVAAMAKDKANMQHRYVELFLNSTAGTSGGAYDHSYVELFLNSTAGASGGAYGSQMMGGMGLSNQSSYGGPASQQLSGGYGGGYGGQSSMSGYDQVLQENSSDYQSNLA | not soluble |
| GVADASDPIRPLVEALNAEAPLKLWSVLVTCLGDVSRDGVIEVSGVALSSFVERMGLQPQAMRVALHRLKRDGWVESRRLGRVGFHRLSDSALTQTRAVAGRIYGPGAGPAPWHLAGMPPDAPDGLSLLPDTLSATPISRRFALICGPLEDVPEDWLLTAPSGRGLPVWVQDVVVEAGCEAEFKALERTLAQIDKVPDTRLERFTLRVLVLHAWRRLILRSSPAAEAALGGARAEISCRARVHQLLDQLGSVEPDWDLPATEDAAS | soluble |
| MSLSKNKLKTPHCMLNLTFNWLSFCEMRGTRDTVEDMFVCKANPVDNQACMAIFDGHGGSKTSYYACGVFIKLYTSAKMIFSKQWLRGTMRGISESVKTKLFPDGSTAAVAMFKDRKLITSTIGDSRIIVMTEDGKLKYENRVHKPTQREEFERVHEAGGSVYGFRLQNSLALSRTMGDIAVPGISAESEEDEVNLDEEDRWVIVGCDGVFDELPMSFVGELCKKAKSAIGLSHSLRTAAFAARSQDNITVVALDVKTLYSKVELASDMNSTMREGHHHHHH | not soluble |
| MAHHHHHHMLFRTIRHFDLRRPTLMELVRELRFRTEAPIADCCAALKEANENMDRALEVLRNKGLAKAVKKGSRVTEHGSVVACVGETFGAAIVTVCSETDFAARSLQFQRVCGTVMETLRTQIISTEGTALDDCAAVHRLLTDAAAEQIQATIAVLGENVTIKSIQPLRFAPHVAEHISIGAYTHGTLSVQNVGRVAGVVAVSRTDPSARVPEEKLVDVARHFVACSGAEGSYAHQNFFGTEETVGQWLKRHGLRFSSSLVVDFGKEPIIHTAPQPVAGTK | soluble |
| MGSDKIHHHHHHMPHYDVVDTSNNNGIMTVANWRSMKKYGVKAMIAKLSEGTYFTDQTAKPSIRNAITAGLHVNGYHFARFTTETGAKAEAQMAARSALKAGLGKSSVIVLDFEATNSGWNQNSKIVKAWINEVHRMGYPKTDVYTMGSWINSVPLNNSGRGGWVANYPYNPSGFKLYTGYNGWQWTSSMHFPGCYGGFDVSQMYSNYYYGTTTHVAKPKKAIYYRYNPKMIYARTPINRYKDVAFKHKVDNFPAGTVFAIAKVINYGKITRFQLANGYYITSNQTNVNRLYYSVDGGVKRVKSVRGTHRYKDKALKHVVDWQPAETEFDVAKIVKYGDTTRIQLANGLFISGNKKINKFVK | not soluble |
| MSLAILIKNRIGKGYPIYTSTVLNEKLSDEGNLTFDILENENTYDLISAVSKMWTVHNVAGPDDKRVFVITIIDRQSRGEKQYVSITARQKEIDDLMTQRIYSNVTGSFTVENYFKIVFQGSGYKYKIPIKVPSSRWENAGDGDSRYEMFKNGLERYDLEYTYDPSNKTFTLEPFVEKKTSYYISSKVNANNLKLEEDASECYTYIRGYGGFEEDESFMQGSVQVEFTHPLAKVIGKREAPPKIDGRITNIETMKREIEAIIAQSLKTSLSLDFVALREVFPSAVPRIGDLVPVRDDIIDINDSVRIIEIKTTRDAHNKIIKQDVVLGDIRRRDRYTKSVNNAATLASGLGGGSEGHHHHHH | soluble |
